Publication PMC8447599

Legend:
[1] = target: HoxA without the hydrophobic C-terminal membrane anchor (HoxA∆CTA), Strep-tagged (Alternaria alternata); test: SEC
[2] = target: Apo-PGP (photosensory domain of FphA without chromophore) (A. nidulans); test: BLI
[3] = target: Holo-PGP (chromophore-loaded photosensory domain of FphA) (A. nidulans); test: BLI

## HoxA without the hydrophobic C-terminal membrane anchor (HoxA∆CTA), Strep-tagged (domain or fragment)
[1]
  stoichiometry N: 2
[2]
  Kd: 0.00113 mM
[3]
  Kd: 64.6 mM
